The source of these data is paper PMC3885427.

Sequence of SHOX2a (called SHOX2 in the paper), full-length, yeast two-hybrid fusion, O60902-1 A269D (O60902 whole entry A269D, the tested form may be a part): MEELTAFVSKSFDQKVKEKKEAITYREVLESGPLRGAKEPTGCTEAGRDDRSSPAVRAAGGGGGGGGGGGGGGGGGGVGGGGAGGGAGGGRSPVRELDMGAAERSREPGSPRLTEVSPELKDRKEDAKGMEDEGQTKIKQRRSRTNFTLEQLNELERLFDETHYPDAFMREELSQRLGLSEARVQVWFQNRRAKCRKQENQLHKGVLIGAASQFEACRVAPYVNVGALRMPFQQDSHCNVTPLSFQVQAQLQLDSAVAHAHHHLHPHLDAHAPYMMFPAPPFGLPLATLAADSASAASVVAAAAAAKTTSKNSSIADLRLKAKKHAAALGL
Sequence of SHOX2a (called SHOX2 in the paper), full-length, yeast two-hybrid fusion, O60902-1 K139E (O60902 whole entry K139E, the tested form may be a part): as the sequence (O60902 whole entry A269D, the tested form may be a part) above, with K139E, D269A counted along it
Sequence of SHOX2a (called SHOX2 in the paper), full-length, yeast two-hybrid fusion, O60902-1 L155V (O60902 whole entry L155V, the tested form may be a part): as the sequence (O60902 whole entry A269D, the tested form may be a part) above, with L155V, D269A counted along it
Sequence of SHOX2a (called SHOX2 in the paper), full-length, yeast two-hybrid fusion, O60902-1 R218Q (O60902 whole entry R218Q, the tested form may be a part): as the sequence (O60902 whole entry A269D, the tested form may be a part) above, with R218Q, D269A counted along it
Sequence of SHOX2a (called SHOX2 in the paper), full-length, yeast two-hybrid fusion, O60902-1 A193P (O60902 whole entry A193P, the tested form may be a part): as the sequence (O60902 whole entry A269D, the tested form may be a part) above, with A193P, D269A counted along it
Sequence of SHOX2a (called SHOX2 in the paper), full-length, yeast two-hybrid fusion, O60902-1 R319P (O60902 whole entry R319P, the tested form may be a part): as the sequence (O60902 whole entry A269D, the tested form may be a part) above, with D269A, R319P counted along it
Sequence of SHOX2a (called SHOX2 in the paper), full-length, yeast two-hybrid fusion, O60902-1 R196C (O60902 whole entry R196C, the tested form may be a part): as the sequence (O60902 whole entry A269D, the tested form may be a part) above, with R196C, D269A counted along it

The assay deals with SOX6, full-length, yeast two-hybrid fusion (UniProt P35712). Put plainly: yeast two-hybrid (β-galactosidase liquid assay). Particulars: S. cerevisiae Y187; SOX6 in pGBT9 (BD), SHOX2 mutant in pACT2 (AD); CRPG as substrate; parent: est. 100; read off a plot.
Sequence of SOX6, full-length, yeast two-hybrid fusion (P35712 whole entry, the tested form may be a part): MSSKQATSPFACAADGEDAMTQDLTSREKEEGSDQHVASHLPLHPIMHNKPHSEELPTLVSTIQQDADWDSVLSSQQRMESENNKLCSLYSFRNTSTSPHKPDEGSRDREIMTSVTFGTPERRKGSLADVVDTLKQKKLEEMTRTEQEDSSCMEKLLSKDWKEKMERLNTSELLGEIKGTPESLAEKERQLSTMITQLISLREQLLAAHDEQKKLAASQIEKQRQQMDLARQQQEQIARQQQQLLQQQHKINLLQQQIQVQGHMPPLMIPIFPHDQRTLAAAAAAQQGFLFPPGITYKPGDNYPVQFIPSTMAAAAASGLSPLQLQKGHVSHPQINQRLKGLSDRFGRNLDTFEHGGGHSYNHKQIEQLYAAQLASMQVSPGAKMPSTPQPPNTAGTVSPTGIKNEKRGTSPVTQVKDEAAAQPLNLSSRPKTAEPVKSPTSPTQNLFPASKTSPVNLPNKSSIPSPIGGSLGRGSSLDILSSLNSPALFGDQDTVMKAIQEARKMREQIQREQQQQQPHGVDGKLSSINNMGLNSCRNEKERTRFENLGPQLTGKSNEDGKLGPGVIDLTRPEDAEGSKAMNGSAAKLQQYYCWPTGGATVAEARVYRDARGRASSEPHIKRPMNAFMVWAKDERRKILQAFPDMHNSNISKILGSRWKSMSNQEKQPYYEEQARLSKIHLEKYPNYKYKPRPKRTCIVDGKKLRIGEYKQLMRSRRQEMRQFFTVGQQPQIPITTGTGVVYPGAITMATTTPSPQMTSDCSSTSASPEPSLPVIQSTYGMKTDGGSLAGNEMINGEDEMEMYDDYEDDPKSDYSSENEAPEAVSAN
As for “SHOX2a (called SHOX2 in the paper), full-length, yeast two-hybrid fusion, O60902-1 A193P”, the percent of parent (% Interaction with SOX6) was determined as 8.
The same measure for “SHOX2a (called SHOX2 in the paper), full-length, yeast two-hybrid fusion, O60902-1 A269D”: 87.
The same measure for “SHOX2a (called SHOX2 in the paper), full-length, yeast two-hybrid fusion, O60902-1 K139E”: 44.
The same measure for “SHOX2a (called SHOX2 in the paper), full-length, yeast two-hybrid fusion, O60902-1 L155V”: 10; for “SHOX2a (called SHOX2 in the paper), full-length, yeast two-hybrid fusion, O60902-1 R196C”: 29; for “SHOX2a (called SHOX2 in the paper), full-length, yeast two-hybrid fusion, O60902-1 R218Q”: 89.
For the substance “SHOX2a (called SHOX2 in the paper), full-length, yeast two-hybrid fusion, O60902-1 R319P”, the percent of parent (% Interaction with SOX6) turned out to be 80.
